# Test results reported in patent US20220298229A1 (ICHOR BIOLOGICS, published 2022).
# T1: ANDV glycoprotein (GPC), glycoproteins Gn and Gc of hantavirus strain Chile-9717869 (Andes Virus (hantavirus strain …, UniProt Q9E006 19-1138))
# T1 sequence: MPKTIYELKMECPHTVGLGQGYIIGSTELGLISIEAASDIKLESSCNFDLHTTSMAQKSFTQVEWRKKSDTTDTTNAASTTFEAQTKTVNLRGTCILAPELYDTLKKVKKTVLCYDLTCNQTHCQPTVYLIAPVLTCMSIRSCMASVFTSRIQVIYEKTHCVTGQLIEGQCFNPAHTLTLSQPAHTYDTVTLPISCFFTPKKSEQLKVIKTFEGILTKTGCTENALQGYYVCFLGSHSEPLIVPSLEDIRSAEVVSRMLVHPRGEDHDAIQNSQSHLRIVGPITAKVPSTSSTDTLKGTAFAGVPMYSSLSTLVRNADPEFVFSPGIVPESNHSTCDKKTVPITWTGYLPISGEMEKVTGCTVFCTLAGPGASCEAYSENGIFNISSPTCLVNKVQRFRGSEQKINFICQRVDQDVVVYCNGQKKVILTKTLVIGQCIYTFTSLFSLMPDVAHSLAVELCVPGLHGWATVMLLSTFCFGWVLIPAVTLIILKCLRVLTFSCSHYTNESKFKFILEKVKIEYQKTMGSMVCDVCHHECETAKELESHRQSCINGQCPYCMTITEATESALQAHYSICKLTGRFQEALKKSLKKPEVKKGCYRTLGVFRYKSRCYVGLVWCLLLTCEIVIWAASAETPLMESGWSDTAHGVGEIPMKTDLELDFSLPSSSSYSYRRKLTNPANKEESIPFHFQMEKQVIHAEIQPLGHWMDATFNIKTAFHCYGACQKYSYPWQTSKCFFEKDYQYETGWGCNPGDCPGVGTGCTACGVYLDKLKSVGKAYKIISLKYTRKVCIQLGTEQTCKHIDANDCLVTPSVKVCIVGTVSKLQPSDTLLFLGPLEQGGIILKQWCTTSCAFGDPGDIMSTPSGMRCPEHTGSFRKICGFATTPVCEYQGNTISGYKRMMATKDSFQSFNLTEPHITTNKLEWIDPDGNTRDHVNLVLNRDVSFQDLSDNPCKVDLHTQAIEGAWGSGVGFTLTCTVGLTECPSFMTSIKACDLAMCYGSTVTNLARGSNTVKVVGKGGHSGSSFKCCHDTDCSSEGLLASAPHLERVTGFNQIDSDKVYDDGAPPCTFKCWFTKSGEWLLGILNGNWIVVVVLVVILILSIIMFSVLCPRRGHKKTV
# Assays:
# [1] = molecular target: T1, ANDV glycoprotein (GPC), glycoproteins …; experiment: cell-based or functional assay
# [2] = molecular target: T1, ANDV glycoprotein (GPC), glycoproteins …
binder,measurement,setting,value
"monoclonal antibody MIB22 (antibody, V domains shown, also called MIB22 IgG; first antibody) VH: EVQLVQSGAELKKPGSSVKVSCKASGGTFVGYGVSWVRQVPGHGPEWMGGFSPISNTANYAERFQGRVTMIVDGSTSTAYMELRSLRSEDTAIYYCARSCDFWNAYYNNWFDPWGQGTLVTVSS VL: AQSALTQPASVSGSPGQSITISCTGTSSDFADYNSVSWYQQHPGKAPKLLIFDVNDRPSGVSHRFSGSKSGNTASLTISGLQAEDESDYYCTSYTICNSYVFGTGTKVTVLG",neutralization capacity relative to JL16,[1],31 fold
same,potency of ANDV neutralization relative to polyclonal IgG from P10,[1],67 fold
same,EC50,[2],3.38 µg/mL
